Source: article PMC3409459, “Absorption, distribution, metabolism and excretion of peginesatide, a novel erythropoiesis-stimulating agent, in rats” (Xenobiotica; the Fate of Foreign Compounds in Biological …, 2011)
Like-named read-outs stand apart in the source and are kept apart here.

Key:
[1] = Plasma pharmacokinetics of unlabeled peginesatide after a single IV dose (ELISA); type: in vivo, male Sprague-Dawley rats; settings: for time for which plasma concentrations were quantifiable: LLOQ 40 ng/mL; for AUC0–t / CL / t½ / Cmax: plasma, mean (SD), n=3; for Cmax: value at 0.25 h
Procedure: Plasma samples were analyzed for peginesatide concentration using a competition enzyme linked immunosorbent assay (ELISA) as previously described ([Fan et al. 2006]). The capture anti-peginesatide antibody was a high affinity polyclonal antibody preparation directed against the peptidic part of the molecule so the assay detects mono- and di-PEG-conjugated peptide as well as free peptide. The lower limit of quantitation was 40 ng-mL^1, the intra assay precision (% coefficient of variation) was 5-10% and the intra assay accuracy (% bias) was 1.9-5.7%.
The PK of peginesatide was assessed in male Sprague-Dawley rats following the administration of unlabeled and radiolabeled test article. The linearity of the PK profile was evaluated in rats (n = 3/group) administered a single IV dose of peginesatide at 0.1, 0.5, or 5 mg·kg^−1. Blood samples were collected predose and 0.25,1, 6, and 24h, and 2,3, 5, 7,10,14,17, 21, 24, and 28 days following dosing. Samples were analyzed by ELISA.
Noncompartmental PK parameters for peginesatide and metabolites were generated using WinNonlin ver. 4.0, Pharsight Corporation (Mountain View, CA). The maximum plasma concentration (Cmax) and their times of occurrence (tmax) were obtained directly from the mean plasma concentration vs. time profiles. The areas under the plasma concentration-time curves […] were estimated by the linear trapezoidal rule - by adding all the area portions under the curve from time zero to the time of the last observed plasma concentration (tn). Elimination rate constants (kz) were estimated by fitting a linear regression of log mean concentration against time data in the terminal exponential phase (at least 3 data points). Apparent terminal half-life (t1/2) was calculated as In2/λz. The AUC0-inf was calculated as the sum of AUC0-t and Cobs/λz, where Cobs, was the actual concentration at the time of the last quantifiable concentration. The plasma clearance (CL) for peginesatide was estimated as the ratio of dose/ AUC0-inf. The mean residence time (MRT) was calculated as the ratio of AUMC0-inf/AUC0-inf, where AUMC0-inf was the area under the first moment curve from the time zero to infinity. The volume of distribution at steady state (Vss) was estimated as CL x MRT.

[2] = Quantitative whole body autoradiography (QWBA) tissue distribution; type: in vivo, male Sprague-Dawley rats; settings: for the radiolabel distribution and QWBA studies
Procedure: Tissue distribution of radioactivity was assessed by quantitative whole-body autoradiography (QWBA) in addition to determination of radioactivity tissue levels by LSC. At various time points following the administration of the desired QWBA target dose of 100 uCi/kg [^14C]-peginesatide, equating to a 17mg/kg dose of peginesatide, the rats were anesthetized with isoflurane and blood (−3-4 mL) was collected via cardiac puncture. Anesthetized rats were sacrificed by immersion in a hexane dryicebath. Carcasseswere embedded in 2% carboxymethylceilulose over solid CO2 to ensure the block was retained frozen, and then stored at −20°C until sectioning. In addition, ^14C radioactivity standards were embedded with each carcass to provide a context for quantification and for quality control purposes.
Samples were sectioned onto adhesive tape (Nakagawa NA-70 MAG, Japan) at five levels of interest in the sagittal plane, with all major tissues, organs, and biological fluids represented. […] To quantitate radioactivity in tissues, a calibration standard curve was constructed using American Radiolabeled Chemicals, Inc ARC 146 standards. The autoradiographic image data for the calibration standards and specified tissues, organs, and fluids were quantified using Imaging Research Inc. AIS software. […]

[3] = In vivo metabolite profiling, plasma and tissues at 14 days; design: species or system male Sprague-Dawley rats; settings: single IV 5 mg/kg [^14C]-peginesatide; HPLC fractions/LSC; n = 3
[4] = ref Fan et al. 2006; cited from earlier work
Procedure: Multiple clearance mechanisms may be involved with peginesatide as clearance involves glomerular filtration; a presumably non-saturable elimination. […] High concentrations of radioactivity were also measured in the liver. In addition, negligible excretion (<0.1%) of the radiolabel was d ...

[5] = ref Im et al. 2010, cited from earlier work
Source text: The totality of the metabolism data is consistent with in vitro studies conducted in liver and kidney micro-somes and S9 fractions from rats, monkeys, and human donors ([Im et al. 2010]).

## Peginesatide
[1]; 0.1 mg·kg^−1 IV
  time for which plasma concentrations were quantifiable: 3 days
  AUC0–t: 60.3 (4.71) μg·h/mL
  CL: 1.65 (0.13) mL/h/kg
  t½: 17.5 (0.3) h
  Cmax: 2.56 (0.162) μg/mL
[1]; 0.5 mg·kg^−1 IV
  AUC0–t: 388 (48.8) μg·h/mL
  CL: 1.29 (0.18) mL/h/kg
  t½: 19.7 (2.6) h
  Cmax: 13.5 (1.40) μg/mL
[1]; 5 mg·kg^−1 IV
  time for which plasma concentrations were quantifiable: up to 7 days
  AUC0–t: 5405 (327) μg·h/mL
  CL: 0.92 (0.06) mL/h/kg
  t½: 31.6 (3.4) h
  Cmax: 137 (6.19) μg/mL
[2]
  bone marrow to bone ratios: 11-25
[3]
  Day 14 concentration, Kidneys: 2.64 μg equiv·g^−1 or mL
[4]
  clearance in a rat chronic renal insufficiency model compared to a rat with normal renal function: twofold lower clearance
[5]; human donor liver and kidney microsomes and S9 fractions
  metabolites after incubation with microsomes (metabolic stability in vitro): no metabolites were observed
[5]; monkey liver and kidney microsomes and S9 fractions
  metabolites after incubation with microsomes (metabolic stability in vitro): no metabolites were observed
[5]; rat liver and kidney microsomes and S9 fractions
  metabolites after incubation with microsomes (metabolic stability in vitro): no metabolites were observed
